Assay results from patent US10618965 (dated 2020).
Where a chain is given by its changes, count along the chain named.

B1: IgG1-v1 (antibody)
chain 1: not shown
chain 2: DIQMTQSPSSLSASVGDRVTITCRASQDISSYLNWYQQKPGKAPKLLIYYTSRLHSGVPSRFSGSGSGTDFTFTISSLQPEDIATYYCQQGNTLPYTFGQGTKVEIK
B2: IgG1-v4 (antibody)
chain 1: not shown
chain 2: B1 chain 2
B3: IgG1-v2 (antibody)
chain 1: not shown
chain 2: B1 chain 2
B4: IL6R-PD082 (antibody)
chain 1: QVQLQESGPGLVKPSETLSLTCAVSGHSISHDHAWSWVRQPPGEGLEWIGFISYSGITNYNPSLQGRVTISRDNSKNTLYLQMNSLRAEDTAVYYCARSLARTTAMDYWGEGTLVTVSSASTKGPSVFPLAPSSKSTSGGTAALGCLVKDYFPEPVTVSWNSGALTSGVHTFPAVLQSSGLYSLSSVVTVPSSSLGTQTYICNVNHKPSNTKVDKKVEPKSCDKTHTCPPCPAPELLGFDSVFLFPPKPKDTLYISRTPEVTCVVVDVSHEDPEVKFNWYVDGVEVHNAKTKPREEQYNSTYRVVSVLTVLHQDWLNGKEYKCKVSNKALPAPIEKTISKAKGQPREPQVYTLPPSRDELTKNQVSLTCLVKGFYPSDIAVEWESNGQPENNYKTTPPVLDSDGSFFLYSKLTVDKSRWQQGNVFSCSVMHEALHYHYTQKSLSLSP
chain 2: B1 chain 2
B5: IL6R-PD079 (antibody)
chain 1: B4 chain 1 with F239A
chain 2: B1 chain 2
B6: IL6R-PD086 (antibody)
chain 1: B4 chain 1 with F239L
chain 2: B1 chain 2
B7: IL6R-PD087 (antibody)
chain 1: B4 chain 1 with F239M
chain 2: B1 chain 2
B8: IL6R-PD081 (antibody)
chain 1: B4 chain 1 with F239E
chain 2: B1 chain 2
B9: IL6R-PD043 (antibody)
chain 1: B4 chain 1 with L236Y, F239G
chain 2: B1 chain 2
B10: IL6R-PD095 (antibody)
chain 1: B4 chain 1 with F239Y
chain 2: B1 chain 2
B11: IL6R-PD080 (antibody)
chain 1: B4 chain 1 with F239A
chain 2: B1 chain 2
B12: IL6R-PD042 (antibody)
chain 1: B4 chain 1 with L236W, F239G
chain 2: B1 chain 2
B13: IL6R-PD097 (antibody)
chain 1: B4 chain 1 with F239G, S241D
chain 2: B1 chain 2
B14: IL6R-PD094 (antibody)
chain 1: B4 chain 1 with F239W
chain 2: B1 chain 2
B15: IgG1-v5 (antibody)
chain 1: B4 chain 1 with F239G, Y254M, S269E, L330F, Y436N
chain 2: B1 chain 2
B16: IgG1-v3 (antibody)
chain 1: not shown
chain 2: B1 chain 2
B17: F939 (antibody)
chain 1: B4 chain 1 with L237R, F239G, D240P, S241K, Y438V
chain 2: not shown
B18: F821 (antibody)
chain 1: B4 chain 1 with L237R, F239G, D240P, S241K
chain 2: not shown
B19: F1009 (antibody)
chain 1: B4 chain 1 with L237R, F239G, D240P, S241K, T252V, T309Q, V310P, Q313A, Y438V
chain 2: not shown
B20: IgG1-F424 (antibody)
chain 1: B4 chain 1 with F239G, D240P, S241K, Y254M, P259A, V310P, M430L
chain 2: not shown
B21: IgG1-F157 (antibody)
chain 1: B4 chain 1 with F239G, D240P, Y254M, P259A, V310P, M430L
chain 2: not shown
B22: F1327 (antibody)
chain 1: B4 chain 1 with L236A, L237A, F239G, D240P, T252V, N299A, T309Q, V310P, Q313A, Y438V
chain 2: not shown
B23: F938 (antibody)
chain 1: B4 chain 1 with L237K, F239G, D240P, S241K, Y438V
chain 2: not shown
B24: F1356 (antibody)
chain 1: B4 chain 1 with G238R, F239G, D240P, L330R, Y438V
chain 2: not shown
B25: F1333 (antibody)
chain 1: B4 chain 1 with L237R, G238R, F239G, D240P, S241K, Y438V
chain 2: not shown
B26: F1317 (antibody)
chain 1: B4 chain 1 with F239G, D240P, S241K, P331K, Y438V
chain 2: not shown
B27: F890 (antibody)
chain 1: B4 chain 1 with F239G, D240P, Y438V
chain 2: not shown
B28: F1324 (antibody)
chain 1: B4 chain 1 with L236A, L237A, F239G, D240P, Y438V
chain 2: not shown
B29: F1318 (antibody)
chain 1: B4 chain 1 with F239G, D240P, S241K, P331R, Y438V
chain 2: not shown
B30: F1316 (antibody)
chain 1: B4 chain 1 with F239R, D240P, S241K, Y438V
chain 2: not shown
B31: F1315 (antibody)
chain 1: B4 chain 1 with F239K, D240P, S241K, Y438V
chain 2: not shown
B32: F1325 (antibody)
chain 1: B4 chain 1 with L236A, L237A, F239G, D240P, N299A, Y438V
chain 2: not shown
B33: F39 (antibody)
chain 1: B4 chain 1 with F239G, D240P, S256T
chain 2: not shown

Target: T1, human FcgRIIb (human)
T1 chain: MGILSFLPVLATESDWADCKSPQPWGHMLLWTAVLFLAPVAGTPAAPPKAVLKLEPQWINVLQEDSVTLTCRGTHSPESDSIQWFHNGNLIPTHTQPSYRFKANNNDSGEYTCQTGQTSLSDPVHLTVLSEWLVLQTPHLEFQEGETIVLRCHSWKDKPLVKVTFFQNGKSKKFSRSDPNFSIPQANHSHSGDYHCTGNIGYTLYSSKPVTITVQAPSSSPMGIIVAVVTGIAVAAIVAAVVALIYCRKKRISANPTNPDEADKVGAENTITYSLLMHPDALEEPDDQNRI
Test: SPR

Binder | Kd
B1 | 1100 nM
B2 | 11000 nM
B3 | 2300 nM

These binders were tested against human FcgRIIIa(V) (human) (assay: SPR).
human FcgRIIIa(V) (human), sequence (chain, as listed by the source): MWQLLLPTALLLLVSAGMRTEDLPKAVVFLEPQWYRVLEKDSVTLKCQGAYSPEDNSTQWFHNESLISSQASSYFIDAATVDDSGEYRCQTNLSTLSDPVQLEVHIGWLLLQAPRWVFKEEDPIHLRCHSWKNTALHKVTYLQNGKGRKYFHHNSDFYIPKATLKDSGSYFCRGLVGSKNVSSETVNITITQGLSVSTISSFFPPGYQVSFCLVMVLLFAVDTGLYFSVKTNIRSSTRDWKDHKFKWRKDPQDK

Binder | Kd
B4 | 43 µM
B5 | 37 µM
B6 | 41 µM
B7 | 37 µM

Target: T1, human FcgRIIb
Test: SPR
Remark: another data set of the same source

Binder | Kd
B8 | 3600 nM
B4 | 3400 nM
B9 | 1600 nM
B5 | 3000 nM
B10 | 2300 nM
B6 | 2600 nM
B11 | 2000 nM
B7 | 2900 nM
B12 | 2000 nM
B13 | 1400 nM
B14 | 2300 nM

Target: T1, human FcgRIIb
Test: SPR
Remark: another data set of the same source

Binder | Kd
B1 | 1100 nM
B15 | 450 nM
B16 | 13 nM

Target: T2, human FcgRIIa(R) (human)
T2 chain: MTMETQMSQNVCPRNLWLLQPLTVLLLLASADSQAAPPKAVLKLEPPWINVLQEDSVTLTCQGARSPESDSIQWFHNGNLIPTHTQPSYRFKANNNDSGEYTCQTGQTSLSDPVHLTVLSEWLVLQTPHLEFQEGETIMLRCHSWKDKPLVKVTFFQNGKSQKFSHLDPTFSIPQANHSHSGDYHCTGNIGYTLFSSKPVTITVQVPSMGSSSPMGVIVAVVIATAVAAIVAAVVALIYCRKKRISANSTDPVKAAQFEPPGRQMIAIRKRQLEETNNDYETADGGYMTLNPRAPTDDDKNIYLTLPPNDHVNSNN
Test: SPR

Binder | Kd
B8 | 38 µM
B4 | 14 µM
B9 | 26 µM
B5 | 32 µM
B10 | 7.9 µM
B6 | 18 µM
B11 | 21 µM
B7 | 22 µM
B12 | 16 µM
B13 | 3.5 µM
B14 | 7.2 µM

These binders were tested against human FcgRIa (human) (assay: SPR).
human FcgRIa (human), sequence (chain, as listed by the source): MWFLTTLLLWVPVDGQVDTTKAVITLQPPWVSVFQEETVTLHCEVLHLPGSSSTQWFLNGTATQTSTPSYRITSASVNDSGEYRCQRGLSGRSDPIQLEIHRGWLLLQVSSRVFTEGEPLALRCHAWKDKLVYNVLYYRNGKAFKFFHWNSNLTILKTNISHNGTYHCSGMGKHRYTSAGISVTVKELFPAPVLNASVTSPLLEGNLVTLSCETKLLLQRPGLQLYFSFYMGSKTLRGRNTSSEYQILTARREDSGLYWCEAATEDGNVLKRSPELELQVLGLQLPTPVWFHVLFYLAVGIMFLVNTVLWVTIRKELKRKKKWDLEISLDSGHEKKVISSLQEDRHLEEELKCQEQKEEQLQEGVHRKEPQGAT

Binder | Kd
B8 | 340 nM
B4 | 52 nM
B9 | 75 nM
B5 | 140 nM
B10 | 93 nM
B6 | 120 nM
B11 | 140 nM
B7 | 52 nM
B12 | 63 nM
B13 | 4.9 nM
B14 | 36 nM

These binders were tested against human FcRn (with beta2-microglobulin) (human) (assay: SPR, pH 7.0).
human FcRn (with beta2-microglobulin) (human), sequence (chain, as listed by the source, chain 1 of 2): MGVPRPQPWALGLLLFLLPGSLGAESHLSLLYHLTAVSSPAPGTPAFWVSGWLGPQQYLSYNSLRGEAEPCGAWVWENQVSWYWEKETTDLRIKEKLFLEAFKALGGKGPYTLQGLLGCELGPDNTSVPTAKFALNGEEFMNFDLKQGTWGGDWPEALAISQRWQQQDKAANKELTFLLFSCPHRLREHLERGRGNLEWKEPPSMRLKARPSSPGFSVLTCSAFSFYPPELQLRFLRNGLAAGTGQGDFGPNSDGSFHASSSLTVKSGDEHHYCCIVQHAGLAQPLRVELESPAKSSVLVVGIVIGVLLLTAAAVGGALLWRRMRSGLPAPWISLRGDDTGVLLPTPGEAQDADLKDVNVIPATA
human FcRn (with beta2-microglobulin) (human), sequence (chain, as listed by the source, chain 2 of 2): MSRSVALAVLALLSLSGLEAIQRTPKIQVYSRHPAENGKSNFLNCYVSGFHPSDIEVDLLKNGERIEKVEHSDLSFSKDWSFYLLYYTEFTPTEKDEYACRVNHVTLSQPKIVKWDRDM

Binder | Kd
B17 | 150 nM
B18 | 310 nM
B19 | 12 nM

Target: human FcRn (with beta2-microglobulin) (human)
Test: SPR, pH 7.0
Remark: another data set of the same source

Binder | Kd
B20 | 94 nM
B21 | 150 nM

Target: human FcRn (with beta2-microglobulin) (human)
Test: SPR, pH 7.0
Remark: another data set of the same source

Binder | Kd
B22 | 14 nM
B23 | 161 nM
B24 | 158 nM
B25 | 123 nM
B26 | 138 nM
B17 | 153 nM
B19 | 12 nM
B27 | 107 nM
B28 | 132 nM
B29 | 143 nM
B30 | 149 nM
B31 | 152 nM
B32 | 213 nM

These binders were tested against human FcRn (with beta2-microglobulin) (human) (assay: SPR, neutral pH).

Binder | Kd
B33 | 300 nM
